Results reported in patent US7968306B2 (Wisconsin Alumni Research Foundation, priority 2002, dated 2011).

B1: annexin I: native rabbit lung annexin I protein (protein, UniProt P51662 2-346, looked up)
Annexin A1: AMVSEFLKQAWFIDNEEQDYINTVKTYKGGPGSAVSPYPAFNPSSDVAALHQAIMVKGVDEATIIDILTKRNNAQRQQIKAAYLQEKGKPLDEVLKKALTGHLEEVVLALLKTPAQFDADELRAAMKGLGTDEDTLIEILASRNNKEIREINRVYREELKRDLAKDIASDTSGDFQKALLSLAKGDRSEDFGVNEDLADTDARALYEAGERRKGADVNVFTTILTTRSYLHLRRVFQKYSKYSQHDMNKVLDLELKGDIEKCLTAIVQCATCKPAYFAEKLYQAMKGAGTRHKALIRIMVSRSEVDMNDIKAFYQKKYGVSLCQAILDETKGDYEKILVALCGGN
B2: Truncated α1-AT: 48 kDa truncated human α1-AT (16His to 357Pro) isolated from heat-treated CF BALF; PLA2 stimulator (protein, listed as Homo sapiens)
chain: HDQDHPTFDKITPDLAEFAFSLYRQLAHQSDSTNIFFSPVSIAAAFAMLSLGAKGDTHDEILEGLNFNLTEIPEAQIHEGFQELLRTLNQPDSQLQLTTGNGLFLSEFLKLFDKFLEDFKKLYHSEAFTVNFGTDEEAKKQINDYVEKGTQGKIVNLVKELDRDTVFALVNYIFFKGKWERPFEVKDTEEEDFHVDQVTTVKVPMMKRLGMFNIQHCKKLSSWVLLMKYLGNATAIFFLPDEGKLQHLENELTHDIITKFLENEDRRSASLHLPKLSITGTYDLKSVLGQLGITKVFSNGADLSGVTEEAPLKLSKAVHKAVLTIDEKGTEAAGAMFLEAIP
B3: annexin VIII: native rabbit lung annexin VIII protein (protein, UniProt O97529 1-327, looked up)
Annexin A8: MAWWKAWVEQEGVTVKGSPHFNPVPDAETLYKAMKGIGTNEQAIIDVLTRRSSAQRQQIAKSFKAQFGSDLTETLKSELSGKFERLIVALMYPPYRYEAKELHDAMKGLGTKEGVIIEILASRTKNQLQEIMKAYEEDYGSSLEEDIQADTSGYLERILVCLLQGSRDDVTGFVDPGLALQDAQDLYAAGEKICGTDEMKFITILCTRSARHLMRVFEEYEKIANKSIEDSIKSETHGSLEEAMLTIVKCTRNLHCYFAERLHYAMKGAGTLDGTLIRNIVSRSEIDLNLIKGHYKKMYGKTLSSMIMEDTSGDYKNALLSLVGSDP

Key:
[1] = biological target: PLC (Clostridium perfringens) (Clostridium perfringens, UniProt P0C216)
porcine pancreatic PLA2 = porcine pancreatic PLA2 (Sus scrofa, UniProt P00592); experiment: Continuous fluorescent assay of PLA2 (Bis-BODIPY FL C11-PC labeled DOPC-PG liposomes); details: for loss of activity after treating the protein in boiling water: boiling water for 5 min; for TFI: 5 ng PLA2, 37° C., 2 min; for TFI / % of control: truncated α1-AT 6 μg, intact α1-AT 20 μg, albumin 20 μg
Chain of porcine pancreatic PLA2 (P00592 23-146): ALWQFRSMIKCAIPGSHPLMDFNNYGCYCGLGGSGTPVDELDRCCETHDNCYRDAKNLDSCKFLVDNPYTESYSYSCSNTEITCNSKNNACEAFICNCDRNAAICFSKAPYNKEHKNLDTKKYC

[2] = biological target: T1, porcine pancreatic lipase (Sus scrofa, UniProt P00591); experiment: Fluorescent assay of lipase after PLC reaction; type: biochemical; details: FIG. 42
T1 construct: purchased Sigma; host or cells: porcine pancreas
T1 sequence (P00591 1-450): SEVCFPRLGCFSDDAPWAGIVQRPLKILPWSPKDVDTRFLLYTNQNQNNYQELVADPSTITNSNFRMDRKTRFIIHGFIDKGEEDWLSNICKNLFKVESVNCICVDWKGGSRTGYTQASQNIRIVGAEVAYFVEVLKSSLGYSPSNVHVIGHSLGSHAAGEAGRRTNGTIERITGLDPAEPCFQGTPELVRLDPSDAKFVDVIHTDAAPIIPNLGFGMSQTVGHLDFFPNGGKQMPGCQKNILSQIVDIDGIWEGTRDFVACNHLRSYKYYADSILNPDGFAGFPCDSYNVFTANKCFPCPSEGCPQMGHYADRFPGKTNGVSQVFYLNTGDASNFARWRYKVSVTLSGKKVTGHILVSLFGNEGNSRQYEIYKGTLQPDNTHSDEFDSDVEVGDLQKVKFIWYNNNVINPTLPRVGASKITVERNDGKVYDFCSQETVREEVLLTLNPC

pancreatic PLA2 = biological target: T2, pancreatic PLA2 (Sus scrofa, UniProt P00592); experiment: Radioactive assay of PLA2 (14C-labeled liposomes); type: biochemical, porcine; details: 10 μg rabbit lung annexin, FIG. 25
T2 construct: purchased Sigma Chemical (St. Louis, Mo.); host or cells: porcine pancreas
T2 sequence (P00592 23-146): as the sequence (P00592 23-146) above
Protocol: Radioactive assay of PLA2. […] In some tests, 25-100 μg of CF BALF proteins, or 10 μg of rabbit lung annexin I or annexin VIII or both were added to the reaction mixture as specified. The reaction was carried out at room temperature for 30 sec and stopped by adding 2 ml of chloroform:methanol (1:2 vol) followed by addition of 0.4 ml water, and 10 μl of egg PC and lysoPC (20 nmol) which was used as carrier. The test tube was stirred using a Vortex. Lipids were extracted by adding additional 0.6 ml water and 0.6 ml chloroform. After agitating on a vortex, the mixture was centrifuged at 2,000 rpm for 10 min. The chloroform layer was withdrawn and transferred to a new test tube using a Pasteur pipette. Chloroform was evaporated to dryness under a flow of nitrogen. PC and lysoPC were isolated by the methods of silica gel thin-layer chromatography (TLC) using a developing solvent system of chloroform/methanol/water in a ratio of 65/45/5 as described previously (41). Lipids on the TLC plate were visualized by exposure of the TLC plate in an iodine tank. […] Radioactivity in the vial was determined by using a beta scintillation counter. PLA2 activity was expressed as either decrease in PC radioactivity or increase in fatty acid or lysoPC radioactivity as described previously (41).

[3] = with lysoPC (9 nmol), control LysoPC + PLA2
[4] = without lysoPC, control PLA2 (5 ng)

Molecule | effect on PLC activity [1] | loss of activity after treating the protein in boiling water (porcine pancreatic PLA2) | effect on lipase activity [2] | TFI (porcine pancreatic PLA2; with lysoPC (9 nmol)) | % of control (porcine pancreatic PLA2; [3]) [%] | TFI (porcine pancreatic PLA2; without lysoPC) | % of control (porcine pancreatic PLA2; [4]) [%] | inhibition of PLA2 and PLA2-s activities (pancreatic PLA2) | further results
Human serum α1-AT: human serum α1-AT obtained from Sigma Chemical Co. | inhibited PLC activity | not affected |  |  |  |  |  |  | effect of commercial α1-AT on PLA2 activity (porcine pancreatic PLA2; Sigma product, FIG. 44A): stimulated PLA2 activity
Intact α1-AT: intact 52 kDa human serum α1-AT; serum PLA2-s (protein-II) purified from human serum | effectively inhibited PLC activity | less than 20% | no effect on the lipase activity | 29.81 | 151.4 | 68.96 | 183.3 |  | effect on PLA2 activity (porcine pancreatic PLA2; wide range of protein concentrations): exhibited only PLA2-stimulating activity
B1 |  |  |  |  |  |  |  | significantly inhibited | inhibition of PLA2 activity and of the effect of truncated α1-AT on PLA2 stimulation (porcine pancreatic PLA2; fluorescent assay, FIG. 46B): markedly inhibited
B2 | effectively inhibited PLC activity | heat stable | no effect on the lipase activity | 31.82 | 161.6 | 57.23 | 152.1 |  | effect of isolated PLA2-s on pancreatic PLA2 activity (porcine pancreatic PLA2; 6 μg PLA2-s, FIG. 29B): exhibited PLA2-stimulating activity; effect on PLA2 activity with 50% PC-50% PG liposomes (porcine pancreatic PLA2; 6 μg truncated α1-AT, 37° C.): markedly stimulated; effect on PLA2 activity with 90% PC-10% PG liposomes (porcine pancreatic PLA2; 6 μg truncated α1-AT, 37° C.): did not significantly enhance the PLA2 activity; effect on PLA2 activity with 100% PC liposomes (porcine pancreatic PLA2; 6 μg truncated α1-AT, 37° C.): did not stimulate PLA2 activity
B3 |  |  |  |  |  |  |  | significantly inhibited | 
